This passage reports EC50 results from patent CN115028713A (JIANGSU DONGKANG BIOMEDICAL TECH CO LTD, dated 2022).

The assay concerns the target T1, SARS-COV2-N-B1617 (N protein of SARS-CoV-2 variant B1617) (SARS-CoV-2 variant B1617).
T1 construct: also called 冠状病毒SARS-COV2变异株B1617

B1: 单克隆抗体OP2 (anti-SARS-CoV-2 N protein monoclonal antibody OP2) (antibody, V domains shown)
VH: DVQLVESGGGLVQPGGSRKLSCAASGSTFSNFGMHWVRQAPEKGLEWVAYISSASSIIYYADTVKGRFTISRDNPKNTLFLQMTSLRSEDTAMYYCARSAMDYWGQGTSVTVSS
VL: DIVLTQSPASLAVSLGQRATISCKASQSVNYSGDSYMNWFQQKPGQPPKLLIYAASNLESGIPARFSGSGSGTDFTLNIHPVEEEDAATYYCQQSEEQPYTFGGGTKLEIK
notes: also called 抗N蛋白的抗体
Turning to B1, the midpoint of the response, the EC50, lay at 0.0166 mg/L.
